T1: Gal4 transcriptional activation domain (AD) fused in frame with AR (yeast, UniProt P10275 1-920, limits assumed)
T1 sequence (looked up): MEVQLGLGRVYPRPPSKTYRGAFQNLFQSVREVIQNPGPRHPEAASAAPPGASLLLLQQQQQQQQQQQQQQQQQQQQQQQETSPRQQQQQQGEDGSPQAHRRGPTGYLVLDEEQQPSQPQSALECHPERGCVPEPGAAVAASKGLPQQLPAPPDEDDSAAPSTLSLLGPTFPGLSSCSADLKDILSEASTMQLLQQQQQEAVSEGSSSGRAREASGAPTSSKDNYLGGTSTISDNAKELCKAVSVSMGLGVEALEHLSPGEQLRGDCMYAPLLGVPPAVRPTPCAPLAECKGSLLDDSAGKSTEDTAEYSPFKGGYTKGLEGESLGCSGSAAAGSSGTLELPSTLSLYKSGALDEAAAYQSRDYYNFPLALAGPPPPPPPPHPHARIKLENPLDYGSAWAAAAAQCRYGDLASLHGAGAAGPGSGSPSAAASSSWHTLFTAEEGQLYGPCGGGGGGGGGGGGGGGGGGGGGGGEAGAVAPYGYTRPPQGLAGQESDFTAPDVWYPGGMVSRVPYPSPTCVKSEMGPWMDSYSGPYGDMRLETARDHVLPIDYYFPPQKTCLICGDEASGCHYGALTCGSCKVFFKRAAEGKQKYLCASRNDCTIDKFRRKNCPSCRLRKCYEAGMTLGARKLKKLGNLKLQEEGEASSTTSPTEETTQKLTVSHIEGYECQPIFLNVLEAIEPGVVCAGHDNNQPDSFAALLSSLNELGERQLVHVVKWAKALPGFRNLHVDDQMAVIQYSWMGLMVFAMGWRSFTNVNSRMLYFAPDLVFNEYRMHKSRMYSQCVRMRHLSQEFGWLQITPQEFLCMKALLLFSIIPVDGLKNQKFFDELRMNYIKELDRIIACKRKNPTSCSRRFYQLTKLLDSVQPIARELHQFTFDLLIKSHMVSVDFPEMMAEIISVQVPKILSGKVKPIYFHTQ

T2: ER α (UniProt P03372 1-595, limits assumed)
T2 construct: also called estrogen receptor α; ERα-ERE
T2 sequence (looked up): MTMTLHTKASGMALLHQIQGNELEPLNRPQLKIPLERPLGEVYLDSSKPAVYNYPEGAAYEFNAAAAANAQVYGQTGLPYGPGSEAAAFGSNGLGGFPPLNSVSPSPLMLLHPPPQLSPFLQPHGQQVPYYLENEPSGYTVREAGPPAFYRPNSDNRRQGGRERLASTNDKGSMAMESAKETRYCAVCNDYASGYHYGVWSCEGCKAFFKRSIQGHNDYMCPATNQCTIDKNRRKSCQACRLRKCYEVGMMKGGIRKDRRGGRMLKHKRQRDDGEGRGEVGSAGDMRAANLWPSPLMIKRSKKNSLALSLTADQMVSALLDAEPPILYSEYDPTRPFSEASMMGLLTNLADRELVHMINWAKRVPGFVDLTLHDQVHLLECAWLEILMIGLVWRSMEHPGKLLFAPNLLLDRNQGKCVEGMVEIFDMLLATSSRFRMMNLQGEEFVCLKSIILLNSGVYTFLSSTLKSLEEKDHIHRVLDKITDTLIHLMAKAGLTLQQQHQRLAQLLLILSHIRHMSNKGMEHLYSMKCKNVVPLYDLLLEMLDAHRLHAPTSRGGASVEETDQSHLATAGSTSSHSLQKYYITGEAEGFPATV

B1: B23H12 (peptide)
chain: MKLLSSIEQACDICRLKKLKCSKEKPKCAKCLKNNWECRYSPKTKRSPLTRAHLTEVESRLERLEQLFLLIFPREDLDMILKMDSLQDIKALLTGLFVQDNVNKDAVTDRLASVETDMPLTLRQHRISATSSSEESSNKGQRQLTVSEFPELLAMTRWGRHAALLEPQRLPPPRTTTQPQTEFERMFFFTRPMRTTGLLDLQPS

What follows are binders tested against T1, Gal4 transcriptional activation domain … (assay: cell-based or functional assay).

β-galactosidase activity (yeast two-hybrid), MPA	β-galactosidase activity (yeast two-hybrid), Test	Binder
1.31	2.44	B1

What follows are binders tested against T2, ER α (assay: phage isolated on ERα-ERE; Estradiol).

binding result	Binder
binds	SRLTCLLQSNGWDSEQCSR [E1-7]
binds	HSHPHHSHLLYKLMGG [E1-3]
binds	SRSPILTHLLSLGSR [2E]
binds	SSTGILWKLLTAESR [3E]
binds	HSHNHHSPWLFRLLGG [E1-1]
binds	HSHPLPPLLSRLLTGG [E1-4]

From patent publication US20040043420A1, “Method of identifying conformation-sensitive binding peptides and uses thereof” (priority 2003, published 2004)
